According to US20120134979A1, “METHODS AND COMPOSITIONS FOR THE TREATMENT OF SICKLE CELL DISEASE” (priority 2010, published 2012):

Test system: RBCs from SCD patients
Test: Hypoxia-induced 2,3-DPG in erythrocytes purified from SCD patients
Format: cell-based, human
Conditions: hypoxic conditions (2% oxygen)
Procedure: Isolation of total erythrocytes and treatment of human and mouse erythrocytes in vitro. Blood collected with heparin as an anti-coagulant was centrifuged at 240×g for 10 min at room temperature, followed by aspiration of plasma and white interface. Packed red blood cells (RBCs) were washed 3 times with culture media (F-10 Ham's with 1% penicillin/streptomycin, 10% fetal bovine serum (FBS), and re-suspended to 4% hematocrit (HCT). One ml of RBCs was added to each well of a 12-well plate. Normal RBCs purified from humans were treated with different concentrations of 5′-(N-ethyl-carboxamido) adenosine (NECA, an adenosine receptor agonist, Sigma-Aldrich, St. Louis, Mo.) ranging from 1-50 μM for different time points (from 1 to 18 hr) under normoxic conditions. Normal RBCs were treated with 10 μM NECA in the presence or absence of adenosine receptor antagonists, including theophylline, PSB36, SCH442416, MRS1754 and MRS3777 (Tocris Bioscience, St. Louis, Mo.) at 10 μM. In addition, normal RBCs were treated directly with the A2BR agonist (BAY 60-6583, Bayer HealthCare AG, Wuppertal, Germany) or the A2AR agonist (CGS21680) (Tocris). Similarly, the mouse RBCs were treated with or without NECA at 10 μM in the presence or absence of theophylline (10 μM). In addition, RBCs purified from 4 adenosine receptor deficient mice were treated with 10 μM NECA. After 18 hours, cells were collected and 2,3-DPG levels were measured as described below. RBCs were purified from SCD patients and treated with or without 10 μM NECA, 5 units/ml polyethylene glycol-adenosine deaminase (PEG-ADA) or 3 mmol/L glycolic acid (Sigma-Aldrich), 10 μM MRS1754 (A2BR antagonist) under ambient oxygen (normoxia) or different levels of hypoxic conditions (for 3 hours with shaking at 37° C. At the end of experiments, 2,3-DPG levels were measured and the percentage of sickled cells determined as described below.
2,3-DPG analysis. 2,3-DPG concentration in RBCs was detected by a commercially available kit (Roche, Nutley, N.J., and as described in Ericson A, de Verdier C H. A modified method for the determination of 2,3-diphosphoglycerate in erythrocytes. Scandinavian journal of clinical and laboratory investigation. 1972; 29(1):84-90).

B1: PEG-ADA: polyethylene glycol-modified adenosine deaminase, a drug used to lower adenosine concentrations in ADA-deficient humans (protein, UniProt P56658 2-363, looked up)
Adenosine deaminase: AQTPAFNKPKVELHVHLDGAIKPETILYYGRKRGIALPADTPEELQNIIGMDKPLSLPEFLAKFDYYMPAIAGCREAVKRIAYEFVEMKAKDGVVYVEVRYSPHLLANSKVEPIPWNQAEGDLTPDEVVSLVNQGLQEGERDFGVKVRSILCCMRHQPSWSSEVVELCKKYREQTVVAIDLAGDETIEGSSLFPGHVKAYAEAVKSGVHRTVHAGEVGSANVVKEAVDTLKTERLGHGYHTLEDATLYNRLRQENMHFEVCPWSSYLTGAWKPDTEHPVVRFKNDQVNYSLNTDDPLIFKSTLDTDYQMTKNEMGFTEEEFKRLNINAAKSSFLPEDEKKELLDLLYKAYGMPSPASAEQCL
modifications: PEGylated
hypoxia-mediated induction of 2,3-DPG: reduced
